# Assay results: article PMC3618186, “Dynein and Dynactin Leverage Their Bivalent Character to Form a High-Affinity Interaction” (PLoS ONE, 2013)
# B1: dynactin p150^Glued coiled-coil 1A (CC1A), residues 204–348 (domain or fragment, R. norvegicus, UniProt P28023 204-348, looked up)
# chain: PGAAPPLPSPSKEEEGLRDQVRDLEEKLETLRLKRSEDKAKLKELEKHKIQLEQVQEWKSKMQEQQADLQRRLKEAKEAKEALEAKERYMEEMADTADAIEMATLDKEMAEERAESLQQEVEALKERVDELTTDLEILKAEIEEK
# notes: R. norvegicus dynactin p150Glued, residues 204-348; Dimer at 4°C by sedimentation equilibrium; source: E. coli BL21 Star (DE3), purified (Ni-NTA, Ulp1 cleavage, HiTrap Q XL, Superdex 75); not shown: His6, N-terminal, cleaved; SMT3 (S. cerevisiae SUMO), N-terminal, cleaved
# B2: S. cerevisiae dynein intermediate chain Pac11, residues 1–86, wild type (domain or fragment, UniProt P40960 1-86, looked up)
# chain: MERLKQLEEKRRQLKELRERRKQASLFPGSETMGHHPTEVHAKATMVSVSVQTDMEEGSKIQEPQSAYLRRKEVITYDKGIQTDQI
# notes: S. cerevisiae dynein intermediate chain Pac11, residues 1-86; Cloned in pGEX 6P-3; also called wt-Pac11^1–86; Pac11 1–86; source: E. coli BL21 Star (DE3), purified (Glutathione Sepharose 4B, precision protease, Superdex 75)
# B3: dynactin p150^Glued coiled-coil 1B (CC1B), residues 381–530 (domain or fragment, R. norvegicus, UniProt P28023 381-530, looked up)
# chain: SSEKQEHVKLQKLMEKKNQELEVVRQQRERLQEELSQAESTIDELKEQVDAALGAEEMVEMLTDRNLNLEEKVRELRETVGDLEAMNEMNDELQENARETELELREQLDMAGARVREAQKRVEAAQETVADYQQTIKKYRQLTAHLQDVN
# notes: also called p150^Glued CC1B; source: E. coli BL21 Star (DE3), purified (Ni-NTA, Ulp1 cleavage, HiTrap Q XL, Superdex 75); not shown: His6, N-terminal, cleaved; SMT3 (S. cerevisiae SUMO), N-terminal, cleaved
# B4: p150^Glued CC2 (residues 928–1049) (domain or fragment, rat (numbering stated as rat, p-0002), UniProt P28023 928-1049, looked up)
# chain: AALRAEITDAEGLGLKLEDRETVIKELKKSLKIKGEELSEANVRLSLLEKKLDSAAKDADERIEKVQTRLEETQTLLRKKEKEFEETMDALQADIDQLEAEKTELKQRLNSQSKRTIEGLRG
# notes: Unpublished observation of the authors
# Legend:
# [1] = target: the molecule itself; assay: AUC; sedimentation equilibrium of the p150Glued fragments alone, 4°C, 1x PBS, 1 mM TCEP; monomer-dimer model (dimer to monomers)
# [2] = target: B3; assay: native gel or EMSA; native PAGE; purified proteins incubated at 25°C for five minutes in equimolar or two fold molar excess; 12% gels with a stacking gel at pH 7.4 or 8–25% gradient gels; settings: both partners purified
# [3] = target: the molecule itself; assay: not stated; unpublished observation
binding result [2],Binder,Kd [1],stoichiometry N [1],stoichiometry N [3]
–,B1,< 40 nM,2,–
binds,B2,–,–,–
–,B3,< 60 nM,2,–
–,B4,–,–,2
